Entries after “also recorded” stand apart in the source; their conditions may differ. Where no end group is shown, it is not given here.
Tests used:
endogenous KNTC2 = target: T1, endogenous KNTC2 (Homo sapiens, UniProt O14777); experiment: Immunoprecipitation of FLAG-tagged CDCA1 deletion-constructs in LC319 cells; assay type: binding; details: LC319 cells transfected with deletion-construct
T1 construct: endogenous in cells; host or cells: LC319
T1 sequence (O14777 1-642): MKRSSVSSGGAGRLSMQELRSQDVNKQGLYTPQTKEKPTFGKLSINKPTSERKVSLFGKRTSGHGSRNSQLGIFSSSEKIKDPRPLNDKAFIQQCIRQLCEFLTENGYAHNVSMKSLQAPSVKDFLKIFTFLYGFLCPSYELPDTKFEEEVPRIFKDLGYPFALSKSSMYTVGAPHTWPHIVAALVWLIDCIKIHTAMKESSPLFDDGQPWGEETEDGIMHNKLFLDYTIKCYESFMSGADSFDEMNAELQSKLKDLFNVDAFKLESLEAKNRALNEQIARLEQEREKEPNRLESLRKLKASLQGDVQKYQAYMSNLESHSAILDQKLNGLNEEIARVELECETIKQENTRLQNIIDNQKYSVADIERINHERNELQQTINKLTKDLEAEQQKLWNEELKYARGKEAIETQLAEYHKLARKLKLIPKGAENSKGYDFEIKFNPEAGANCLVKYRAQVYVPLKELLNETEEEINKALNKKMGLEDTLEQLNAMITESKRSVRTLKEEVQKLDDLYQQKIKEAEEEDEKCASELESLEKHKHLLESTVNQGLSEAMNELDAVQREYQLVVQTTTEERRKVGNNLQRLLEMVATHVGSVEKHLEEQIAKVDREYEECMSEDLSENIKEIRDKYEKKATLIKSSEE
Experimental: (g) Identification of the KNTC2-binding region in CDCA1: Eleven deletion-constructs of CDCA1 (CDCA1 200-464, CDCA1 149-464, CDCA11-348, CDCA11-148, CDCA1 149-306, CDCA1 306-464, CDCA1 319-464, CDCA1 277-416, CDCA1 277-367, CDCA1 319-416, and CDCA1 319-367) were cloned into appropriate sites of C-terminal FLAG-tagged-pCAGGS vector. Cell extracts from lung-cancer cell line LC319, transfected with plasmids expressing eleven deletion-constructs of CDCA1 were pre-cleared by incubation at 4° C. for 1 hour with 100 μl of protein G-agarose beads in final volumes of 2 ml of immunoprecipitation buffer (0.5% NP-40, 50 mM Tris-HCl, 150 mM NaCl) in the presence of proteinase inhibitor. After centrifugation at 1,000 rpm for 5 min at 4° C., the supernatants were incubated at 4° C. with anti-FLAG M2 agarose for 2 hours. After the beads were collected from each sample by centrifugation at 5,000 rpm for 2 min and washed six times with 1 ml of immunoprecipitation buffer, the washed beads were re-suspended in 50 μl of Laemmli sample buffer and boiled for 5 min before the proteins were separated on 10% SDS PAGE gels. Immunoblot was performed using KNTC2 polyclonal antibody (Abcom, Inc.) and anti-FLAG M2 monoclonal antibody respectively (Sigma-Aldrich Co.).

MRC5 cells = experiment: MTT assay, 11R-peptides on normal lung fibroblasts; assay type: cell-based; details: normal human lung fibroblast derived MRC5 cells, hardly detectable CDCA1 and KNTC2
Experimental: (m) Effect of 11R-peptides on lung-cancer cell growth: LC319 and […] and normal human lung fibroblast derived MRC5 cells were incubated with 11R-peptides at the concentration of 5 μM, 10 μM, and 20 μM for seven days. The medium was exchanged every other day at the appropriate concentrations of each peptide and the viability of cells was evaluated by MTT assay at 7 days after the treatment; briefly, cell-counting kit-8 solution (DOJINDO, Kumamoto, Japan) was added to each dish at a concentration of 1/10 volume, and the plates were incubated at 37° C. for additional 4 hours. Absorbance was then measured at 490 nm, and at 630 nm as a reference, with a Microplate Reader 550 (BIO-RAD). Flow-cytometric analysis was performed as described previously (Suzuki, C. et al. Cancer Res. 65, 11314-11325 (2005).).

[1] = Mouse model: body weight and food intake; assay type: in vivo, BALB/c nude mice; details: intratumoral 0.15 μmol/body/day for 7 weeks, among three treatment groups, data not shown
Experimental: (n) Mouse model: The animal experiments were conducted according to the institutional and national guidelines for the care and use of laboratory animals, and approved by the institutional animal use committee. 1×10^6 of A549 cells were subcutaneously implanted into the right shoulder of 6-week-old male BALB/c nude mice (nu/nu). Two weeks after the injection, the mice with tumor (30 mm^3 volume on average) were randomized into three groups and intratumorly administered with 11R-CDCA1398-416 peptides (0.15 μmol/body/day), scramble (0.15 μmol/body/day), or PBS (control) for 7 weeks. Tumor volume was measured once a day by using a caliper and applying the data to the formula (volume=0.52×[width]^2×[length]) to calculate the volume of a spheroid.

CDCA1-KNTC2 complex = target: T2, CDCA1-KNTC2 complex (Homo sapiens, UniProt O14777); experiment: Immunoprecipitation: suppression of CDCA1-KNTC2 complex formation in LC319 cells; assay type: binding; details: LC319 cells co-transfected with CDCA1 1-464 and the fragment
T2 construct: full length) and endogenous KNTC2; expressed in transfected cells; host or cells: LC319
T2 sequence (O14777 1-642): T1 sequence (O14777 1-642)
Experimental: (f) Identification of CDCA1-associated Proteins: Cell extracts from lung-cancer cell line LC319 were pre-cleared by incubation at 4° C. for 1 hour with 50 μl of protein A and G-agarose beads, in final volumes of 2 ml of immunoprecipitation buffer (0.5% NP-40, 50 mM Tris-HCl, 150 mM NaCl) in the presence of proteinase inhibitor. After centrifugation at 1,000 rpm for 5 min at 4° C., the supernatants were incubated at 4° C. with anti-CDCA1 polyclonal antibody, anti-KNTC2 polyclonal antibody, or normal rabbit IgG for 2 hours. […] The nucleotide sequence of each cDNA clone was determined with an ABI Prism 3700 DNA sequencer (Applied Biosystems, Foster City, Calif.), using T3, T7, or synthetic oligonucleotide primers according to the manufacturer's instructions. […]
Since the band of endogenous CDCA1 immunoprecipitated with anti-CDCA1/KNTC2 antibody overlapped with IgG-heavy chain bands, it was difficult to detect the interaction between endogenous CDCA1 and KNTC2. […] Interaction of only CDCA1 1-464 (full length) or CDCA1 200-464 with endogenous KNTC2 was detected by immunoprecipitation using anti-KNTC2 polyclonal antibody (FIG. 5A; left top panel; black and white arrows). […]

LC319 cells = experiment: MTT assay after transfection of dominant-negative CDCA1 fragment; assay type: cell-based, human; details: LC319 transfected with fragment plasmid; P=0.0026 CDCA1 200-464 vs CDCA1 149-306

CDCA1 319-367: C-terminal FLAG-tagged deletion-construct of CDCA1 (NLEDQIESDESELKKLKTEENSFKRLMIVKKEKLATAQFKINKKHEDVK-{FLAG tag})
interaction with endogenous KNTC2 (endogenous KNTC2): unable to interact

RRRRRRRRRRRGGGIQKIKLGIQQLKDAAEREK [11R-CDCA1 398-416]
cell viability (MTT) (MRC5 cells): no off-target effect
body weight [1]: no difference
food intake [1]: no difference

B1: CDCA1 200-464: C-terminal FLAG-tagged deletion-construct of CDCA1 lacking the N-terminal portion; dominant-negative fragment (protein)
chain: QKTIVLQEGNSQKKSNISEKTKRLNELKLLVVSLKEIQESLKTKIVDSPEKLKNYKEKMKDTVQKLKNARQEVVEKYEIYGDSVDCLPSCQLEVQLYQKKIQDLSDNREKLASILKESLNLEDQIESDESELKKLKTEENSFKRLMIVKKEKLATAQFKINKKHEDVKQYKRTVIEDCNKVQEKRGAVYERVTTINQEIQKIKLGIQQLKDAAEREKLKSQEIFLNLKTALEKYHDGIEKAAEDSYAKIDEKTAELKRKMFKMST
modifications: left off: small tags and cut ends
notes: C-terminal FLAG-tagged deletion-construct of CDCA1 lacking the N-terminal portion; dominant-negative fragment
interaction with endogenous KNTC2 (endogenous KNTC2): strongest affinity; also recorded: Interaction
complex formation between exogenous CDCA1 (full length) and endogenous KNTC2 (CDCA1-KNTC2 complex): reduced complex formation; also recorded: reduction of the complex formation
cell viability (MTT) (LC319 cells): significant decreases; also recorded: dominant-negative effect

B2: CDCA1 277-367: C-terminal FLAG-tagged deletion-construct of CDCA1 (protein)
chain: EIYGDSVDCLPSCQLEVQLYQKKIQDLSDNREKLASILKESLNLEDQIESDESELKKLKTEENSFKRLMIVKKEKLATAQFKINKKHEDVK
modifications: left off: small tags and cut ends
interaction with endogenous KNTC2 (endogenous KNTC2): unable to interact

B3: CDCA1 149-306: C-terminal FLAG-tagged deletion-construct of CDCA1, served as a control (protein)
chain: ADKMQQLNAAHQEALMKLERLDSVPVEEQEEFKQLSDGIQELQQSLNQDFHQKTIVLQEGNSQKKSNISEKTKRLNELKLLVVSLKEIQESLKTKIVDSPEKLKNYKEKMKDTVQKLKNARQEVVEKYEIYGDSVDCLPSCQLEVQLYQKKIQDLSDN
modifications: left off: small tags and cut ends
notes: C-terminal FLAG-tagged deletion-construct of CDCA1, served as a control
interaction with endogenous KNTC2 (endogenous KNTC2): unable to interact
interaction with endogenous KNTC2 (endogenous KNTC2; listed as CDCA1149-306): did not retain any appreciable ability to interact

B4: CDCA11-148: C-terminal FLAG-tagged deletion-construct of CDCA1 (protein)
chain: METLSFPRYNVAEIVIHIRNKILTGADGKNLTKNDLYPNPKPEVLHMIYMRALQIVYGIRLEHFYMMPVNSEVMYPHLMEGFLPFSNLVTHLDSFLPICRVNDFETADILCPKAKRTSRFLSGIINFIHFREACRETYMEFLWQYKSS
modifications: left off: small tags and cut ends
notes: C-terminal FLAG-tagged deletion-construct of CDCA1
interaction with endogenous KNTC2 (endogenous KNTC2): unable to interact; also recorded: did not retain any appreciable ability to interact

— patent publication US7943295B2, “Screening and therapeutic method for NSCLC targeting CDCA1-KNTC2 complex” (Oncotherapy Science, Inc., priority 2005, dated 2011)
